Laboratory results: patent US20230357790, “SELF-TARGETING EXPRESSION VECTOR” (Touchlight IP Limited, published 2023)

Target: Streptavidin (UniProt P22629 P22629:25-183)
Test: no specific binding to plate; same buffer, room temp
Settings: chain copies: 4
Description: Obtained vectors were tested for binding a streptavidin-coated plate. The amount of DNA retained on the plate was detected by pico-green incorporation assay.
DNA was mixed with streptavidin-coated plate in binding buffer for 2 h, at room temp. Plate was washed 3× with same binding buffer, and the DNA that was bound to the plate was detected with PicoGreen assay in plate, without detaching DNA. [0490] Binding buffer (10×) [0491] 1 M NaCl [0492] 20 mM MgCl2 [0493] 50 mM KCl [0494] 10 mM CaCl2) [0495] 200 mM Tris-HCl, pH 7.6

Streptavidin, sequence (P22629 25-183, one chain of several): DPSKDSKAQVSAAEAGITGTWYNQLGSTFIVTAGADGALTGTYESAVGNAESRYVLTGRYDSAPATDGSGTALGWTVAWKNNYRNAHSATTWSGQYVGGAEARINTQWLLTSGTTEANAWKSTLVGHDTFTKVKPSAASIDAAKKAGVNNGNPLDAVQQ

B1: noApt vector cap (control) (structured_DNA)
DNA: CTGCTCACCTGCCAGCTACGGACGCGGAACGCGTCCGTAGCTGGCAGGTGAGCAG
binding result: no binding
